This data set is described as follows: soluble on expression in E. coli; label from the status in PepcDB or PDB records.
On to “MWINKVIKKRFETDIVQHVHIAKGTAMFQGVRLAVRCFVVDGVLIDTGAKSMENEFTSFFQQQDIDQVVITHFHEDHTGCAAFLQRSMGLPIYMNEPMIEYCRQKADYPLYRKIFWGKRDPFAAKPIGATFSSRNATWDVIPTPGHAIDHVVFLNRETGQLFSGDLYCQEKTKVILREEDIPTIIASLQHVLTYDFGDVFCAHAGYLPNGREALQRKLDYLLELQGTIIDLYEKGTPPKQIQALLFPKKYPIIFFSGGEWDSLHIVRSVIRDYEAKQASLEHHHHHH”, for which the “soluble on expression in E. coli” value is “soluble”.

In the case of “MKRLSPEVFKVPIDRIRNGYYSDIYFINYVKVLKRDSRHPRVYYQFFPRKDAVICGIDEALAILKFCTGYYKDEEKARELFEEILKLDKEMQAASVEMDVQKILELTQKKWDLRLKLNDLWVDKWDEIEVHALYDGEEAKEGEPIMTIEGDPTYFGYLETVLLGVIARATSTATAVKKVVKAARGKPVLFFSARFDHYWVQATDGYAALKAGAFGVSTDANADYWGVKSMGTMPHALIACYDGKTEDAAIAFDRHMEEDVNRIVLVDWDNDVIGTTFRVIEKFYEYVMKKPFKLGVTDPSPIIGPGKNKIWGVRFDTSGNLRDKSVVPKDESSFGVCPELVWRARQEFDKVGLRDLKIVVSGGFDEKKIDLFERLGVPADAYGVGSRLLREKVDITADIVEVNGRHCAKVGRYKIENPRLKKVGKRYWEEE”, the “soluble on expression in E. coli” value is “soluble”. For “MSEMSAIYRVKQYILNLIKDGELTNGSKLPSNLSIARALNVKTDDVYDGIDELITEQVVTDNFEEGTSVKVKPPFYYPLNKIISIGTMIKEAGYEAGTEYLNLDEQPATILDAEHLGIETKEPITIIERLRTANHKPVVYCLDKIAKTYLTCTDYQQSSGSMLEAIKASTNHQIMHAEMDLEAISYEPHISEVLNASPHEGLMLLKVVHYDEKHQPILYSLNYIKSSLVKFTITKSE”, the “soluble on expression in E. coli” value is recorded as “not soluble”. As for “MSVYTTAQLLAVNEKKFKFDPLFLRIFFRETYPFSTEKVYLSQIPGLVNMALYVSPIVSGKVIRSRGGSTSEFTPGYVKPKHEVNPLMMTLRLPDEDPQNVADPVYRRRRIILQNMKDEELAIAQVEEKQAVSAVLSGKYTMTGEAFEPVEVDMGRSAGNNIVQAGAAAWSTRDKETYDPTDDIEAYALNARGVVNIIVFDPKGWALFRSFKAVEKKLDTRRGSNSELETAVKDLGMAVSYKGMFGDVAIVVYSGQYVENDVKKNYLPDLTMVLGNTQARGLRTYGCILDADAQREGIDAST”, the entry is “not soluble”. As for “MGSDKIHHHHHHMKAMAMTPKPTAAIVGMGDAYASMQDRKDPIQLAVAATHKALADAGITKDQVDAVFTGRSPWADKRSQWSNIFCSHMHMPVTITSEITMHGAGLNATVAMAAQMIAAGRAQYVLCLQSDATELFVDAVAMGAEADADPQFEIPYGPTIPALYAQAACRYFHEFGITEEDLADVAIANQSWAMHHPHAAKARFGSIDRAKVLSSPYVATPLRRWMCSTWGGGTGGALVVTSVDNARTAQDPVYVMGYGSATTHEYLGDRMNMRRCRYPSLGAFPNLTHTATAEAARQAYESSGLTPADIDMAQISVNFAHMGPLIMEDLGFAAKGRGMDLYRAGRTGVDGDLPIDTNGGWLSFGQPGISCNMDSYAEAVRQLRGNALGRAPARRPRTVLVQGSGGMLAAGSVTILASEL”, the entry is “not soluble”; as for “MGSDKIHHHHHHMSDEKKSTDIDLKNLKAGGFIKERGKDLFTVRLRVPGGRMPVARLKKIAEVAEKYGQGMVHLSVRQSVELININFRDFDAVVAELGEGTQKVASCGARVRVPTACGGCEYNPNGLVDTQKSALEVDEKLFGTSTGHHKFKVGFAGCPFDCPKSATNDVGFQGAIWPVLYADECIGCGLCDKSCTEDAIVMGDDGKPRFIPENCLYCGDCLKVCPSEAWRAEKKGYTVRIGGKWGRRPLVGTLFAEFLPEEQVFDFIAAVLDWYKEKAEGQGRIRLGDVIRAEGPDALLGYLRERFPAAVVDATIPPQRIATQIGKEKRVP”, “not soluble”. As for “MSLKITAARVIITCPGRNFVTLKIETDQGVYGIGDATLNGRELSVVAYLAGTRRALPHRHGPAPHRGHLAVCLSRAYWRAPARLTMRAIAAVDMALWDIKAKMAGMPLYQLLGGRSRDGIMVYGHANGSDIAETVEAVGHYIDMGYKAIRAQTGVPGIKDAYGVGRGKLYYEPADASLPSVTGWDTRKALNYVPKLFEELRKTYGFDHHLLHDGHHRYTPQEAANLGKMLEPYQLFWLEDCTPAENQEAFRLVRQHTVTPLAVGEIFNTIWDAKDLIQNQLIDYIRATVVGAGGLTHLRRIADLASLYQVRTGCHGATDLSPVTMGCALHFDTWVPNFGIQEYMRHTEETDAVFPHDYWFEKGELFVGETPGHGVDIDEELAAKYPYKPAYLPVARLEDGTMWNWEGHHHHHH”, the entry is “not soluble”; as for “MEEIDDKSKFKVPSWAAKPPNGAHLDVQKGDALIQKLLIDDKKAYYFGRNNKQVDFAVEHASCSRVHALLLYHGLLQRFALIDMDSSHGTFLGNVRLRPLEVVFMDPGTQFHLGASTRKYSVRLKTEHHVEDDPTVAASDEQLDHQTSYNTAQNRRIPQLPISVEEARRKKRPRGNVAFLEEEEVINPEDVDPSVGRFRNLVTTAIISTNPNKRPGDPKRSEPPRKIVRPGRELMSAPLSSTFGPMALNAAPDLELYGKLLPEPGHHQYVTSTATEDEADDHHKKRYAKEAWPGRKPGAGIF”, “soluble”.

For “MEKSGGRIVMDEIRSFEKAHLFDLGHPLLNRIADSFVKAAGVSFDSNNVGPPSEITGNKKHRFPNLRGESSKSLDALVKNTGKESLQWGLAAGLYSGITYGMTEVRGGAHDWRNSAVAGALTGAAMAMTTSERTSHEQVVQSALTGAAISTAANLLSSVF”, the “soluble on expression in E. coli” value is recorded as “soluble”.

With “MLEKFTVIRGKAVPLRGEDIDTDRILPARFMKVLTFEGLGQYLFYDERFDEKGNPKPHPLNDPRYRGATILLVESGFGSGSSREHAPQAIKRAGFKAIIGESFAEIFFGNATAIGLPCVSLAPEDLGVLFRSVEENPELEVEIDLVNKEVRFGDRTAPLFIREEAREALVEGLWDPIGELLEAGELLDQFDRKLPYPRRTE”, the “soluble on expression in E. coli” value is given as “soluble”. As for “SLPYRGTLVMLMNEEVNKIITLCGKDWAKIGVEFIFLGGKQECENCKIKKTCLKLKEGAKYKIVGLRDGAVQECPLHDEGVVAVEVVELPIIALVDSKIAVEGAKIHYEQRKCDVYDCSMYSLCHPIELNNGETVIVEKVIGDAPEQCRKGHSVIVAELRRAEE”, the “soluble on expression in E. coli” value is on record as “soluble”.

In the case of “SAALTAEHFVALQSLLKASSKDVVRQLCQESFSSSCLDSESLLDKTCSSLSVPQGEAAQLLQALHHFTRLVAFRDLSSAEAILALFPENFHQNLKNLLTKIIVEHISTWRAEAQANQISLPRLVDLDWRVDIKTSSDNISRMAVPTCLLQMKIQEDPSLCGEKPSISAVTMELSKETLDTMLDGLGRIRDQLSAVANK”, the “soluble on expression in E. coli” value is “soluble”. For “MSDKLPYKVADIGLAAWGRKALDIAENEMPGLMRMRERYSASKPLKGARIAGCLHMTVETAVLIETLVTLGAEVQWSSCNIFSTQNHAAAAIAKAGIPVYAWKGETDEEYLWCIEQTLYFKDGPLNMILDDGGDLTNLIHTKYPQLLPGIRGISEETTTGVHNLYKMMANGILKVPAINVNDSVTKSKFDNLYGCRESLIDGIKRATDVMIAGKVAVVAGYGDVGKGCAQALRGFGARVIITEIDPINALQAAMEGYEVTTMDEACQEGNIFVTTTGCIDIILGRHFEQMKDDAIVCNIGHFDVEIDVKWLNENAVEKVNIKPQVDRYRLKNGRRIILLAEGRLVNLGCAMGHPSFVMSNSFTNQVMAQIELWTHPDKYPVGVHFLPKKLDEAVAEAHLGKLNVKLTKLTEKQAQYLGMSCDGPFKPDHYRY” the value was “soluble”.

As to “MLTIPEKENRGSKEQEVAIMIDALADKGKKALEALSKKSQEEIDHIVHQMSLAAVDQHMVLAKLAHEETGRGIYEDKAIKNLYASEYIWNSIKDNKTVGIIGEDKEKGLTYVAEPIGVICGVTPTTNPTSTTIFKAMIAIKTGNPIIFAFHPSAQESSKRAAEVVLEAAMKAGAPKDIIQWIEVPSIEATKQLMNHKGIALVLATGGSGMVKSAYSTGKPALGVGPGNVPSYIEKTAHIKRAVNDIIGSKTFDNGMICASEQVVVIDKEIYKDVTNEFKAHQAYFVKKDELQRLENAIMNEQKTGIKPDIVGKSAVEIAELAGIPVPENTKLIIAEISGVGSDYPLSREKLSPVLALVKAQSTKQAFQICEDTLHFGGLGHTAVIHTEDETLQKDFGLRMKACRVLVNTPSAVGGIGDMYNELIPSLTLGCGSYGRNSISHNVSATDLLNIKTIAKRRNNTQIFKVPAQIYFEENAIMSLTTMDKIEKVMIVCDPGMVEFGYTKTVENVLRQKTEQPQIKIFSEVEPNPSTNTVYKGLEMMVDFQPDTIIALGGGSAMDAAKAMWMFFEHPETSFFGAKQKFLDIGKRTYKIGMPENATFICIPTTSGTGSEVTPFAVITDSETNVKYPLADFALTPDVAIIDPQFVMSVPKSVTADTGMDVLTHAMESYVSVMASDYTRGLSLQAIKLTFEYLKSSVEKGDKVSREKMHNASTLAGMAFANAFLGIAHSIAHKIGGEYGIPHGRANAILLPHIIRYNAKDPQKHALFPKYEFFRADTDYADIAKFLGLKGNTTEALVESLAKAVYELGQSVGIEMNLKSQGVSEEELNESIDRMAELAFEDQCTTANPKEALISEIKDIIQTSYDYKQ”, the “soluble on expression in E. coli” value is “not soluble”. In the case of “MCHKLPKTHNCTFFRKLSNWHSGILISLEQKVTGSIPARETVQLAQWYFDFFGAEGHGFNPREGNCPTGAGVYLTSLEQKVTGSIPAWENNFCLIC”, the “soluble on expression in E. coli” value is reported as “not soluble”. For the sequence “MSEHETAGEGRFNSIEIRVLGSLIEKQATSPESYPLTLNALVLACNQKTSREPVMNLTQGQVGQALRALEGQGMTRLQMGSRADRWEHRVDKALELVPAQLVLMGLMFLRGPQTLNELLTRSNRLHDFDDTEQIQHQLERLISRDLALHLPRQAGQREDRYTHALGDPAEIEAILAARQQEGGARTSGGSVSEDRIEALEARIAALEARLAELEG”, the “soluble on expression in E. coli” value is on record as “not soluble”. With “SDFVNNLDTDTSLSILSCLDDPSDIVRASAVSRSWRQFVVKYSLSKNLCLKLFHQLSNVDHIIETSNDRNGESSEAGSSSLMDTRLLEKEHRAFALLARGCMSSPIESCIADAIRASSTDNYPVESILNTLEKRDRIGRTPSYWSSTGQHKTTVPESLLYKLIGDLCLITEVSIHPFQAYFQRGHPIYSSHYVRFRLGHEKDNSPHYNNSQDKKGEPGKSSIESNYVWTYTSQEFSMAQENRLQSFQLPEPVLCIGGYLLVEFLGRVQTQEMDGQYYICVSHVKVEGRSLAKSFRVENVDDNGKFGLKVLSYNDPKKMEEMDAEAGQDMDAEAGQSQLRNLEQLLNLLHRHPLDVVDYVWPDESDDEYAESEDEAEP”, the “soluble on expression in E. coli” value is on record as “soluble”. As for “MRGSHHHHHHTDPALRAENIMNNPVIGVVMCRNRLKGHATQTLQEKYLNAIIHAGGLPIALPHALAEPSLLEQLLPKLDGIYLPGSPSNVQPHLYGENGDEPDADPGRDLLSMAIINAALERRIPIFAICRGLQELVVATGGSLHRKLCEQPELLEHREDPELPVEQQYAPSHEVQVEEGGLLSALLPECSNFWVNSLHGQGAKVVSPRLRVEARSPDGLVEAVSVINHPFALGVQWHPEWNSSEYALSRILFEGFITACQHHIAEKQRLGLCGR”, the entry is “soluble”.
